This assay deals with human HLA-A2 MHC class I molecule on the surface of target cells with no C2 epitope-peptide delivered or added (human). Kind of assay: flow cytometry, TCR STAR multimer staining of untreated (buffer only) target cells.

“TCR CMV-pp65-PE STAR multimer reagent (Altor Bioscience Corp.)”: the percent of cells stained is < 5%.

(Values after patent US20180243432A1.)
